Data reported in US20050037339A1.
Like-named read-outs stand apart in the source and are kept apart here.

How the values were obtained:
[1] = biological target: ErbB2 on cells (SKBR3 high, SK-OV-3 moderate, MCF7 low expression) (human) (UniProt P04626); assay: cell-based or functional assay
[2] = biological target: ErbB2 on cells (SKBR3 high, SK-OV-3 moderate, MCF7 low expression) (human) (UniProt P04626); assay: 3.0×10^11 cfu on SKBR3 cells 2 h at 37 °C, stripping buffer wash titered on E. coli TG1
[3] = biological target: ErbB2 on cells (SKBR3 high, SK-OV-3 moderate, MCF7 low expression) (human) (UniProt P04626); assay: 5.0×10^11 phage on ErbB2 expressing SKBR3 cells at 37 °C, low pH glycine eluate titered on E. coli TG1
[4] = biological target: ErbB2 on cells (SKBR3 high, SK-OV-3 moderate, MCF7 low expression) (human) (UniProt P04626); assay: FACS on SKBR3 cells, anti-M13 and streptavidin-PE detection
[5] = biological target: ErbB2 on cells (SKBR3 high, SK-OV-3 moderate, MCF7 low expression) (human) (UniProt P04626)
[6] = biological target: ErbB2 on cells (SKBR3 high, SK-OV-3 moderate, MCF7 low expression) (human) (UniProt P04626); remark: listed apart in the source
[7] = biological target: recombinant ErbB2 extracellular domain (UniProt P04626); assay: SPR (BIAcore)

C6.5 scFv phagemid, sequence (P69168 19-424): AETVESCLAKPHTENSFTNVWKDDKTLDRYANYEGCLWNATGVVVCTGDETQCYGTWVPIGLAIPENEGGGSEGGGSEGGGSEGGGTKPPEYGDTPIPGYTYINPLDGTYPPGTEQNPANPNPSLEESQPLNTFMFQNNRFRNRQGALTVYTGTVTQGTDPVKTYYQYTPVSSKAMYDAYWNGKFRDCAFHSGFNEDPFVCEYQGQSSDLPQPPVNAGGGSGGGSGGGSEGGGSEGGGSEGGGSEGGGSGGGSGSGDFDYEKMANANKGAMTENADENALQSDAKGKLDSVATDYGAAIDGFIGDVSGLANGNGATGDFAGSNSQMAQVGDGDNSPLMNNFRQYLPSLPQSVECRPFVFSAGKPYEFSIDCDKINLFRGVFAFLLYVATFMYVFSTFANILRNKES
C6.5 diabody phagemid, sequence (P69168 19-424): as above
anti-botulinum scFv phagemid (clone 3D12), sequence (P69168 19-424): as above
F5-phagemid (monovalent), sequence (P69168 19-424): as above
C6ML3-9 scFv phagemid, sequence (P69168 19-424): as above
fd-F5 phage (multivalent), sequence (P03661 19-424): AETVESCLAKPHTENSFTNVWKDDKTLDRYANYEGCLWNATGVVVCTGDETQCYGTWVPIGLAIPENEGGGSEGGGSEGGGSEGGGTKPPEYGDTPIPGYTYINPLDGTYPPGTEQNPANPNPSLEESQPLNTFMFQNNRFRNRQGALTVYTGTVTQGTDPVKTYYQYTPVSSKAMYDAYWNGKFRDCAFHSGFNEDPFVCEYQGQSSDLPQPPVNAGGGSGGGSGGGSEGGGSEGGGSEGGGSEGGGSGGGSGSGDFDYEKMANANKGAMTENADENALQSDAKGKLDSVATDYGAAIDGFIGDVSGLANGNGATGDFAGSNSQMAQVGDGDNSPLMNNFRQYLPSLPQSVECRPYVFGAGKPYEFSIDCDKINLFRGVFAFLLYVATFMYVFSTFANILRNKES
C6.5 scFv phage (fd), sequence (P03661 19-424): as above

Substance: C6.5 diabody phagemid (from UniProt P69168 19-424)
- Intracellular Phage Titer [1]: 4.5e+07 cfu
- Lysed cell fraction (titer of internalized phage) [1]: 1.7e+07 phage titer
- cells with internalized phage (confocal microscopy, SKBR3 cells) [1]: 20%
- input titer below which phage could not be recovered from within SKBR3 cells (input phage titer) [1]: 30000
- Cell Surface Phage Titer, 1st Wash [2]: 1.8e+08 cfu
- Cell Surface Phage Titer, 2nd Wash [2]: 1.2e+07 cfu
- Cell Surface Phage Titer, 3rd Wash [2]: 1.3e+06 cfu
- titer of cell surface bound phage, 1st glycine wash [3]: 1.8e+07 phage titer
- titer of cell surface bound phage, 2nd glycine wash [3]: 2.8e+06 phage titer

Substance: C6.5 phage (Example 2) (scFv)
- Lysed cell fraction (titer of internalized phage) [1]: 6.8e+07 phage titer
- titer of cell surface bound phage, 1st glycine wash [3]: 1.2e+07 phage titer
- titer of cell surface bound phage, 2nd glycine wash [3]: 5.2e+06 phage titer

Substance: C6.5 scFv phage (fd) (from UniProt P03661 19-424)
- Intracellular Phage Titer [1]: 2.2e+08 cfu
- input titer below which phage could not be recovered from within SKBR3 cells (input phage titer) [1]: 30000
- Cell Surface Phage Titer, 1st Wash [2]: 2.3e+08 cfu
- Cell Surface Phage Titer, 2nd Wash [2]: 6.2e+07 cfu
- Cell Surface Phage Titer, 3rd Wash [2]: 5.6e+06 cfu

Substance: C6.5 scFv phagemid (from UniProt P69168 19-424)
- Intracellular Phage Titer [1]: 5.2e+06 cfu
- enrichment of C6.5 scFv phagemid over wild type fd phage in the cell lysate, with trypsinization [1]: 209 fold
- enrichment of C6.5 scFv phagemid over wild type fd phage in the cell lysate, without trypsinization [1]: 6.1 fold
- input titer below which phagemid could not be recovered from within SKBR3 cells (input phage titer) [1]: 300000
- Cell Surface Phage Titer, 1st Wash [2]: 6e+07 cfu
- Cell Surface Phage Titer, 2nd Wash [2]: 9.6e+06 cfu
- Cell Surface Phage Titer, 3rd Wash [2]: 760000 cfu

Substance: C6.5cys scFv conjugated to liposomes
- Total uptake of scFv-conjugated liposomes by SKBR3 cells [1]: 3.4
- share of the liposome uptake that was internalized (SKBR3 cells) [1]: 70%

Substance: C6ML3-9 scFv phagemid (from UniProt P69168 19-424)
- Intracellular Phage Titer [1]: 2.7e+07 cfu
- input titer below which phagemid could not be recovered from within SKBR3 cells (input phage titer) [1]: 3e+06
- Cell Surface Phage Titer, 1st Wash [2]: 2.5e+08 cfu
- Cell Surface Phage Titer, 2nd Wash [2]: 1.4e+07 cfu
- Cell Surface Phage Titer, 3rd Wash [2]: 3.2e+06 cfu

Substance: F5-phagemid (monovalent) (from UniProt P69168 19-424) (scFv)
- % of GFP positive cells (SKBR3, 48 hours; 0.78 µg reporter plasmid DNA) [1]: 0.64%
- % of GFP positive cells (SKBR3, 48 hours; 3.1 µg reporter plasmid DNA) [1]: 1.44%
- % of GFP positive cells (SKBR3, 48 hours; 15 µg reporter plasmid DNA) [1]: 3.84%
- GFP expressing SKBR3 cells after 48 hrs (FACS) [1]: 1.37%
- GFP expressing SKBR3 cells in a co-culture of SKBR3 and MCF7 cells (FACS) [1]: 1.91%
- GFP positive SKBR3 cells at the minimal phage concentration [1]: 0.12%
- maximum percentage of GFP positive SKBR3 cells in the time course [1]: 4.5%
- lowest phage concentration at which binding could be detected [4]: 1e+10 cfu/ml

Substance: anti-botulinum scFv phagemid (clone 3D12) (from UniProt P69168 19-424)
- titer of cell surface bound phage, 1st glycine wash [5]: 600000 phage titer
- titer of cell surface bound phage, 2nd glycine wash [5]: 100000 phage titer
- Cell Surface Phage Titer, 1st Wash [6]: 2.8e+07 cfu
- Cell Surface Phage Titer, 2nd Wash [6]: 3.6e+06 cfu
- Cell Surface Phage Titer, 3rd Wash [6]: 280000 cfu
- Intracellular Phage Titer [1]: 1.5e+06 cfu
- Lysed cell fraction (titer of internalized phage) [1]: 600000 phage titer

Substance: fd-F5 phage (multivalent) (from UniProt P03661 19-424) (scFv)
- % of GFP positive cells (SKBR3, 48 hours; 1.25 ng reporter plasmid DNA) [1]: 0.57%
- % of GFP positive cells (SKBR3, 48 hours; 2.25 ng reporter plasmid DNA) [1]: 0.87%
- % of GFP positive cells (SKBR3, 48 hours; 5 ng reporter plasmid DNA) [1]: 1.69%
- lowest phage concentration at which binding could be detected [4]: 1e+08 cfu/ml

Substance: native anti-ErbB2 F5 scFv
- Kd [7]: 160 nM
